Patent US12371675B2, “Process and microorganism for synthesis of adipic acid from carboxylic acids” (THE GOVERNING COUNCIL OF THE UNIVERSITY OF TORONTO, priority 2015, dated 2025)

Legend:
[1] = OYE hydrogenation activity screen, NADPH oxidation at 340 nm; assay type: biochemical; settings: 1 mM substrate, 0.25 mM NADPH, 2.5 μg protein; cut-off 0.05 U/mg protein; ND = not detected
Protocol: 25 putative OYE genes (Table 1) were cloned based on the Pfam domain of the FMN oxidoreductase family PF00724. Purified OYEs were screened for hydrogenation activity against acrolein, 2-cyclohexn-1-one, cis,cis-muconic acid, trans,trans-muconic acid, and 2-hexendioic acid. Substrate specificity was measured spectrophotometrically in 96-well plates by following incubation for 20 min at room temperature in the anaerobic chamber. Buffers and reagents were also degassed and sparged with Ar. Reaction mixtures contained potassium phosphate (50 mM and pH 7.0), NaCl (10 mM), NADPH (0.25 mM), various substrates (1 mM) and protein (2.5 μg) in a final volume of 200 μL. Enzyme reactions were monitored by following the decrease in absorbance at 340 nm (ε340 nm=6,200/M·cm) as a measure of the conversion of the cofactor NADPH to NADP+.

[2] = Whole-cell biotransformation with E. coli strains over-expressing OYEs; assay type: cell-based; settings: E. coli over-expressing OYE
[3] = CAR reductase activity, NADPH oxidation at 340 nm; assay type: biochemical; settings: ND = no activity was detected
Protocol: Reductase activity was measured spectrophotometrically by following the oxidation of NADPH depletion at 340 nm.
It has been shown that the N. iowensis CAR has a broad substrate range, though its maximal activity was usually observed with aromatic substrates such as benzoic and cinnamic acids. CARs gene sequences homologues to the N. iowensis CAR (Uniprot number: Q6RKB1), were selected from GenBank database. Based on presence of adenylation (AMP-binding PF00501) and reduction (NAD-binding PF07993) domains accompanied with phosphopantetheinyl binding motif (PF00530) 13 CAR genes (mostly from Mycobacterium) were cloned and expressed in E. coli. (Table 4). As CAR activation enzymes, phosphopantetheinyl transferases (PPTs) from E. coli (P19925) and Bacillus subtilis (P39135), were used which were co-expressed with the selected CAR genes from a separate plasmid. Using 1-liter E. coli cultures with overnight induction by IPTG, 12 soluble CAR proteins were purified using affinity chromatography on a Ni-NTA resin.

[4] = In vitro biotransformation by CARs coupled with aldehyde reductase PP_3370; assay type: biochemical; settings: Table 12 title: 10 mM adipic acid (12 h) in vitro, CARs coupled with PP3370
[5] = as above; assay type: biochemical; settings: Table 12 title: 10 mM 4-hydroxybutyric acid (12 h) in vitro, CARs coupled with PP3370
[6] = In vivo whole cell biotransformation by E. coli expressing CARs; assay type: cell-based; settings: 24 h
Protocol: E. coli cells expressing recombinant CARs with BSU03570 phosphopantetheinyl transferase were grown on LB media with […], supplemented with 2% glycerol aerobically on 37° C., until the culture optical density (OD 600 nm) reached 0.6-0.8. At this point protein expression was induced with 0.4 mM IPTG and substrate (adipic acid or 4-hydroxybutyric acid) for final 10 mM concentration was added. Samples were taken at 6 h, 24 h and 48 h, centrifuged, supernatant was filtered through 10 kDa centrifugal filters. Products were analyzed with HPLC or LC-MS. Negative control experiments were performed using E. coli cells harboring empty plasmids. All results of in vivo experiments are means from at least two independent determinations.

[7] = Whole-cell anaerobic biotransformation by E. coli expressing EREDs; assay type: cell-based; settings: 20 mM 2-hexenedioic acid

B1: BSU2381: OYE protein from Bacillus subtilis subsp. subtilis str. 168 (protein)
chain: MARKLFTPITIKDMTLKNRIVMSPMCMYSSHEKDGKLTPFHMAHYISRAIGQVGLIIVEASAVNPQGRITDQDLGIWSDEHIEGFAKLTEQVKEQGSKIGIQLAHAGRKAELEGDIFAPSAIAFDEQSATPVEMSAEKVKETVQEFKQAAARAKEAGFDVIEIHAAHGYLIHEFLSPLSNHRTDEYGGSPENRYRFLREIIDEVKQVWDGPLFVRVSASDYTDKGLDIADHIGFAKWMKEQGVDLIDCSSGALVHADINVFPGYQVSFAEKIREQADMATGAVGMITDGSMAEEILQNGRADLIFIGRELLRDPFFARTAAKQLNTEIPAPVQYERGW
Activity [U/mg protein] 2-cyclohexen-1-one [1]: 0.21 U/mg protein
hydrogenation of 2-hexenedioic acid into adipic acid [2]: no hydrogenation

B2: MSMEI_5586: carboxylate reductase (CAR) from M. smegmatis ATCC 700084 (protein)
chain: MHQLTVTGMNICEVQRLFPRMTSDVHDATDGVTETALDDEQSTRRIAELYATDPEFAAAAPLPAVVDAAHKPGLRLAEILQTLFTGYGDRPALGYRARELATDEGGRTVTRLLPRFDTLTYAQVWSRVQAVAAALRHNFAQPIYPGDAVATIGFASPDYLTLDLVCAYLGLVSVPLQHNAPVSRLAPILAEVEPRILTVSAEYLDLAVESVRDVNSVSQLVVFDHHPEVDDHRDALARAREQLAGKGIAVTTLDAIADEGAGLPAEPIYTADHDQRLAMILYTSGSTGAPKGAMYTEAMVARLWTMSFITGDPTPVINVNFMPLNHLGGRIPISTAVQNGGTSYFVPESDMSTLFEDLALVRPTELGLVPRVADMLYQHHLATVDRLVTQGADELTAEKQAGAELREQVLGGRVITGFVSTAPLAAEMRAFLDITLGAHIVDGYGLTETGAVTRDGVIVRPPVIDYKLIDVPELGYFSTDKPYPRGELLVRSQTLTPGYYKRPEVTASVFDRDGYYHTGDVMAETAPDHLVYVDRRNNVLKLAQGEFVAVANLEAVFSGAALVRQIFVYGNSERSFLLAVVVPTPEALEQYDPAALKAALADSLQRTARDAELQSYEVPADFIVETEPFSAANGLLSGVGKLLRPNLKDRYGQRLEQMYADIAATQANQLRELRRAAATQPVIDTLTQAAATILGTGSEVASDAHFTDLGGDSLSALTLSNLLSDFFGFEVPVGTIVNPATNLAQLAQHIEAQRTAGDRRPSFTTVHGADATEIRASELTLDKFIDAETLRAAPGLPKVTTEPRTVLLSGANGWLGRFLTLQWLERLAPVGGTLITIVRGRDDAAARARLTQAYDTDPELSRRFAELADRHLRVVAGDIGDPNLGLTPEIWHRLAAEVDLVVHPAALVNHVLPYRQLFGPNVVGTAEVIKLALTERIKPVTYLSTVSVAMGIPDFEEDGDIRTVSPVRPLDGGYANGYGNSKWAGEVLLREAHDLCGLPVATFRSDMILAHPRYRGQVNVPDMFTRLLLSLLITGVAPRSFYIGDGERPRAHYPGLTVDFVAEAVTTLGAQQREGYVSYDVMNPHDDGISLDVFVDWLIRAGHPIDRVDDYDDWVRRFETALTALPEKRRAQTVLPLLHAFRAPQAPLRGAPEPTEVFHAAVRTAKVGPGDIPHLDEALIDKYIRDLREFGLI
Activity [U/mg protein] 4-hydroxybutyric acid, 5 mM [3]: 0.058 ± 0.033 U/mg protein
Activity [U/mg protein] adipic acid, 5 mM [3]: 0.017 ± 0.005 U/mg protein
In vitro conversion efficiency % to: 1,6-hexanediol [4]: 10.2 ± 3.4%
In vitro conversion efficiency % to: 6-hydroxyhexanoic acid [4]: 30.3 ± 0.4%
In vivo conversion efficiency (%) to: 1,4-butanediol [5]: 78.4 ± 6.2%
In vivo conversion efficiency (%) to: 1,4-butanediol ([6]; 10 mM 4-hydroxybutyric acid): 78.4 ± 6.2%
In vivo conversion efficiency (%) to: 1,6-hexanediol ([6]; 10 mM adipic acid): 10.2 ± 3.4%
In vivo conversion efficiency (%) to: 6-hydroxyhexanoic acid ([6]; 10 mM adipic acid): 30.3 ± 0.4%

B3: EREDCT: 2-enoate reductase (ERED) from Clostridium tyrobutyricum (protein)
chain: MKNKSLFEPIKIGKVEVKNKISMAPMGAFGLVDNEGCYNQRAVDYYVERAKGGTGLIITSITKVENEIDKVVPGVIPIISINPGRFIMTSSEMTERVHSYGSKIFLQLTMGFGRSGAPGTLLTSQPVSASSVPNYWDPTVTCRELTTSEVEWIVAKFIQGAAIAQKAGFDGVEIHAVHEGYLLDQFTLSIFNRRTDKYGGDLRGRLQLPIEIVQGIKAQVGSDFPVGLRYSVKSCIKDWRQGGLPDEDYVEKGRDLKEGLESAKILEAAGYDELNTDVGTYDAWYWSHPPLYQKDGLYLPYTKELKKVVKIPVIVAGKLGVPQEAEKALDEGGADMIGLARPLLSDAYWPKKVLSGHPERIRPCIGCHVGCLGRGFEGKPLSCAVNPAAGRERYYEIRPAAIPKKVLIAGGGVAGMEAARMAVLRGHKVTLYESTDQLGGEIVPGSVPDFKIDDRRLLDWYRNEMKELKINVIFNTEVTDKLVGKEQPDVVIVATGANDVKIKLPGIEKDKVSTAVDILNGAKKSGKNVLIVGGGLVGCETALYLAKAGKKVAIVEAKDKILDAGKPIPHMNKIMLEDLIKKYNIKVITGNSLLEVTGDGAVLIDNKFKQQEVYADTIVISIGFKSNRKLYNKLHGKVTDLYLIGDAYQTANIMDAIWSGNEIGLNC
production of adipic acid [7]: inactivity

B4: YST4373: OYE protein from Saccharomyces cerevisiae (protein)
chain: MPFVKDFKPQALGDTNLFKPIKIGNNELLHRAVIPPLTRMRAQHPGNIPNRDWAVEYYAQRAQRPGTLIITEGTFPSPQSGGYDNAPGIWSEEQIKEWTKIFKAIHENKSFAWVQLWVLGWAAFPDTLARDGLRYDSASDNVYMNAEQEEKAKKANNPQHSITKDEIKQYVKEYVQAAKNSIAAGADGVEIHSANGYLLNQFLDPHSNNRTDEYGGSIENRARFTLEVVDAVVDAIGPEKVGLRLSPYGVFNSMSGGAETGIVAQYAYVLGELERRAKAGKRLAFVHLVEPRVTNPFLTEGEGEYNGGSNKFAYSIWKGPIIRAGNFALHPEVVREEVKDPRTLIGYGRFFISNPDLVDRLEKGLPLNKYDRDTFYKMSAEGYIDYPTYEEALKLGWDKN
Activity [U/mg protein] 2-cyclohexen-1-one [1]: 0.23 U/mg protein
Activity [U/mg protein] acrolein [1]: 0.17 U/mg protein
hydrogenation of 2-hexenedioic acid into adipic acid [2]: no hydrogenation

B5: EC5625: OYE protein from Escherichia coli K12 (protein)
chain: MSSEKLYSPLKVGAITAANRIFMAPLTRLRSIEPGDIPTPLMAEYYRQRASAGLIISEATQISAQAKGYAGAPGIHSPEQIAAWKKITAGVHAENGHMAVQLWHTGRISHASLQPGGQAPVAPSALSAGTRTSLRDENGQAIRVETSMPRALELEEIPGIVNDFRQAIANAREAGFDLVELHSAHGYLLHQFLSPSSNHRTDQYGGSVENRARLVLEVVDAGIEEWGADRIGIRVSPIGTFQNTDNGPNEEADALYLIEQLGKRGIAYLHMSEPDWAGGEPYTDAFREKVRARFHGPIIGAGAYTVEKAETLIGKGLIDAVAFGRDWIANPDLVARLQRKAELNPQRAESFYGGGAEGYTDYPTL
Activity [U/mg protein] 2-cyclohexen-1-one [1]: 0.18 U/mg protein
hydrogenation of 2-hexenedioic acid into adipic acid [2]: no hydrogenation
